B1: anti-PD-L1 monoclonal antibody 3G10 (parental) (antibody, V domains shown)
VH: QVQLVQSGAEVKKPGASVKVSCKASGYTFTDYGFSWVRQAPGQGLEWMGWITAYNGNTNYAQKLQGRVTMTTDTSTSTVYMELRSLRSDDTAVYYCARDYFYGMDVWGQGTTVTVSS
VL: EIVLTQSPATLSLSPGERATLSCRASQSVSSYLVWYQQKPGQAPRLLIYDASNRATGIPARFSGSGSGTDFTLTISSLEPEDFAVYYCQQRSNWPRTFGQGTKVEIK
notes: It was captured by anti-human IgG Fc sensors; also called mAb 3G10; parental anti-PD-L1 mAb 3G10
B2: EGFR/PD-L1 FIT-Ig6 (bispecific antibody, human IgG1, kappa)
heavy: not shown
chain: QVQLQESGPGLVKPSETLSLTCTVSGGSVSSGDYYWTWIRQSPGKGLEWIGHIYYSGNTNYNPSLKSRLTISIDTSKTQFSLKLSSVTAADTAIYYCVRDRVTGAFDIWGQGTMVTVSSASTKGPSVFPLAPSSKSTSGGTAALGCLVKDYFPEPVTVSWNSGALTSGVHTFPAVLQSSGLYSLSSVVTVPSSSLGTQTYICNVNHKPSNTKVDKKVEPKSC
light: not shown
notes: Six-chain hexamer with no linkers; Human IgG1 Fc
B3: PD-L1/EGFR FIT-Ig5 (bispecific antibody, human IgG1, kappa)
heavy: not shown
chain: QVQLVQSGAEVKKPGASVKVSCKASGYTFTDYGFSWVRQAPGQGLEWMGWITAYNGNTNYAQKLQGRVTMTTDTSTSTVYMELRSLRSDDTAVYYCARDYFYGMDVWGQGTTVTVSSASTKGPSVFPLAPSSKSTSGGTAALGCLVKDYFPEPVTVSWNSGALTSGVHTFPAVLQSSGLYSLSSVVTVPSSSLGTQTYICNVNHKPSNTKVDKKVEPKSC
light: not shown
notes: as for B2

Legend:
[1] = target: T1, recombinant human PD-L1 (Novoprotein) (human, UniProt Q9NZQ7 19-239, limits assumed); experiment: BLI (Octet RED96), antibody captured on anti-human IgG Fc sensors, antigen in solution, 1:1 fit
T1 construct: Bought reagent; also called Programmed Death Ligand 1; CD274
T1 sequence (Q9NZQ7 19-239 limits assumed): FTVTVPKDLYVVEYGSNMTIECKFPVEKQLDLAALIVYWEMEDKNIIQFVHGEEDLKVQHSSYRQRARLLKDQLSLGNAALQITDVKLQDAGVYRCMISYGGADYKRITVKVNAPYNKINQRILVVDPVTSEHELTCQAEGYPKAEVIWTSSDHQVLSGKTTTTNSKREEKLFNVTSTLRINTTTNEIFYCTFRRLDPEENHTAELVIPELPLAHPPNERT
Procedure: (§1) Briefly, each parental mAb and FIT-Ig was characterized for affinities and binding kinetics by Octet®RED96 biolayer interferometry (Pall FortéBio LLC). Each parental mAb and FIT-Ig were captured by Anti-Human IgG Fc Capture (AHC) Biosensors (Pall) at a concentration of 100 nM for 30 seconds. Sensors were then dipped into running buffer (1X, pH 7.2, PBS, 0.05% Tween 20, 0.1% BSA) for 60 seconds to check baseline. Binding was measured by dipping sensors into […] recombinant human PD-L1 (Novoprotein) or recombinant human EGFR (Sino Biological Inc) both ranging from 1 nM to 200 nM. Dissociation was followed by dipping sensors into running buffer for 1200 seconds. The association and dissociation curves were fitted to a 1:1 Langmuir binding model using ForteBio Data Analysis software (Pall).

[2] = target: T1, recombinant human PD-L1 (Novoprotein); experiment: BLI (Octet RED96), comparison of KD values
Procedure: as §1

[3] = target: T2, recombinant human EGFR (Sino Biological Inc) (human, UniProt P00533 25-645); experiment: BLI (Octet RED96), comparison of KD values
T2 construct: Bought reagent; also called epidermal growth factor receptor
Procedure: as §1

[4] = target: T1, recombinant human PD-L1 (Novoprotein); experiment: BLI (Octet RED96), FIT-Ig captured on anti-human IgG Fc sensors, antigen in solution, 1:1 fit
Procedure: as §1

[5] = target: T2, recombinant human EGFR (Sino Biological …); experiment: as above
Procedure: as §1

Row | Binder | Kd [1] [nM] | koff [1] [s⁻¹] | kon [1] [M⁻¹ s⁻¹] | KD higher than that of the parental mAb 3G10 [2] [%] | KD lower than that of the parental panitumumab [3] [%] | Kd [4] [nM] | koff [4] [s⁻¹] | kon [4] [M⁻¹ s⁻¹] | Kd [5] [nM] | koff [5] [s⁻¹] | kon [5] [M⁻¹ s⁻¹]
1 | B1 | 12.5 | 0.0122 | 979000 | – | – | – | – | – | – | – | –
2 | B2 | – | – | – | ~30 | ~25 | 16.3 | 0.0144 | 886000 | 0.491 | 0.000107 | 218000
3 | B3 | – | – | – | – | – | 11.1 | 0.0156 | 1.4e+06 | 0.379 | 6.14e-05 | 162000

Source: patent US20220017617A1 (SHANGHAI EPIMAB BIOTHERAPEUTICS, published 2022)
